Literature values as cited in PMC7106362.

Molecular target: m157 (Murine cytomegalovirus) (UniProt A8E1S5)
Assay: SPR

## Ly49H (from UniProt Q60682)
  Kd: 1000 nM
